Source: PMC12858348, “Structural basis underlying the autoinhibition of the formin FHOD1 and its phosphorylation-dependent activation” (The Journal of Biological Chemistry, 2025)

T1: His-tagged FHOD1-N3 (1–360) (human, UniProt Q9Y613 1-360)
T1 construct: human FHOD1, residues 1-360 (GBD and FH3 domains), from human FHOD1 cDNA in pProEX-HTb; also called FHOD1-N-WT; N-terminal region
T1 sequence (looked up): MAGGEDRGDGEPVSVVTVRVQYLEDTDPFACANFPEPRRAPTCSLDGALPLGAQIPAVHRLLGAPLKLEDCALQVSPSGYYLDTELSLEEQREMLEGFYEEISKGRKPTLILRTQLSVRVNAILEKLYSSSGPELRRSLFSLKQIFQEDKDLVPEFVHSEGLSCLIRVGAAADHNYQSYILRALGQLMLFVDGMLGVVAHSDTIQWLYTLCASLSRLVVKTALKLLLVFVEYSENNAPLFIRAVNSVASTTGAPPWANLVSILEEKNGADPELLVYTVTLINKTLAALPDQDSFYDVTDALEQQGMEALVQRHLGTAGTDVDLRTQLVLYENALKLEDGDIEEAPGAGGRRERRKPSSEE


Biological target: T1, His-tagged FHOD1-N3 (1–360)
Test: pull-down; 20 μg GST fusion protein (GST-DAD 1.25 μM) and 20 μg His-tagged protein (His-FHOD1-N3 1.0 μM) in 500 μl PBS pH 7.4 with 0.1% Triton X-100; glutathione-Sepharose 4B, 1 h at 4 °C; three washes; eluted with 10 mM glutathione; SDS-PAGE, CBB staining, densitometry
Settings: both partners purified

binding result	Binder
binds	GST-fused FHOD1–DAD (1081–1145) (domain or fragment, human, UniProt Q9Y613 1081-1145, looked up, human FHOD1, residues 1081-1145 (diaphanous autoregulatory domain), in pGEX-6P; also called DAD-WT; GST-DAD; source: E. coli BL21, purified (glutathione-Sepharose-4B)) MPTVGPSTASPEEPPGSSLPSDTSDEIMDLLVQSVTKSSPRALAARERKRSRGNRKSLRRTLKSG
binds	GST-fused FHOD1–DAD (1081–1145) M1108A (domain or fragment, human, UniProt Q9Y613 1081-1145, looked up, human FHOD1, residues 1081-1145 (DAD), M1108A in the core motif; also called DAD-M1108A; source: E. coli BL21, purified (glutathione-Sepharose-4B)) MPTVGPSTASPEEPPGSSLPSDTSDEIADLLVQSVTKSSPRALAARERKRSRGNRKSLRRTLKSG
